For one test, the target named is T1, soluble human Ep-CAM (human, UniProt P16422 24-265).
T1 construct: It was truncated by a stop codon at amino acid position 266 and secreted from CHO-K1 cells (pING1954, Clone 51); No signal peptide limits are stated; Multimers were seen on a non-reduced gel; also called sEp-CAM; truncated Ep-CAM
T1 sequence: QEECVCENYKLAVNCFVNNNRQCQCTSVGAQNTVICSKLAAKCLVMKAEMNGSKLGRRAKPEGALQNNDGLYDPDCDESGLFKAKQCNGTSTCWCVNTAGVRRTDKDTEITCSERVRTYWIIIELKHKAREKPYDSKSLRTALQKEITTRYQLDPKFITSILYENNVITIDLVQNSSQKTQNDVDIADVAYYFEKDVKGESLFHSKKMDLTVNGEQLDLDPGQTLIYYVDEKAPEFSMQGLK
Description: ELISA, soluble Ep-CAM coated at 0.25 ug/mL, detection with AP-goat anti-human IgG.

The target of test [1] is T2, Ep-CAM on the surface of HT-29 human colorectal carcinoma cells (human, UniProt P16422 24-314).
T2 construct: The gene was obtained from HT-29 mRNA; also called epithelial cell adhesion molecule; Ep-CAM expressing HT-29 cells
T2 sequence: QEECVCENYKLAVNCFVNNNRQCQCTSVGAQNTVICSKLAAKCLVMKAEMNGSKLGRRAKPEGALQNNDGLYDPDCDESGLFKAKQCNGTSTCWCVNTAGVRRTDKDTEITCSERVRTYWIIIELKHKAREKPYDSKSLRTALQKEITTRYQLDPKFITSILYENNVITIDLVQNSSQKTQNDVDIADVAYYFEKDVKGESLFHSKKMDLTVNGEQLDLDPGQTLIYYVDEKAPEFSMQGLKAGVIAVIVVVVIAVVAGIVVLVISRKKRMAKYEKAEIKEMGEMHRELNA
Put plainly: competition with 125I-labeled chimeric ING-1 on HT-29 cells. From the text:
Vectors constructed according to Example 1 encoding human engineered ING-1 light and heavy chain genes, for example, pING1937 (low risk human engineered ING-1) and pING1944 (low plus moderate risk human engineered ING-1) were linearized by XbaI and used to transfect serum-free adapted CHO-K1 followed by selection of G418-resistant transfectants. Protein was purified from shake flask culture supernatants by passage over a protein A column. To evaluate the binding activity of the produced immunoglobulin polypeptides, competition binding assays with the human carcinoma cell line HT-29 were performed. This colorectal carcinoma cell line expresses a molecule known as Ep-CAM on its surface. Ep-CAM is recognized by immunoglobulin polypeptides having the antigen binding specificity of the mouse-human chimeric ING-1 antibody produced by cell line HB9812 as produced by ATCC.
HT-29 cells were grown to confluency (˜2×10⁵ cells/well) in 96 well plates. Mouse-human chimeric ING-1 was labeled with Na¹²⁵I (Iodo-gen®, Pierce). The competition conditions included in a 100 μl assay volume, 0.1 nM labeled mouse-human chimeric ING-1, 2-fold serial dilutions of unlabeled immunoglobulin polypeptides, for example, as produced by cells transfected with pING1937 and pING1944. […] Labeled cells were removed with NaOH and counted. […]

In test [2] the target is T2, Ep-CAM on the surface of HT-29 human …. Put plainly: competition with iodinated low risk ING-1 on HT-29 cells (FIG. 17).
For test [3] the target is unchanged. Put plainly: competition binding on HT-29 cells (FIG. 16). The procedure:
HT-29 cells were grown to confluency (˜2×10⁵ cells/well) in 96 well plates. Mouse-human chimeric ING-1 was labeled with Na¹²⁵I (Iodo-gen®, Pierce). The competition conditions included in a 100 μl assay volume, 0.1 nM labeled mouse-human chimeric ING-1, 2-fold serial dilutions of unlabeled immunoglobulin polypeptides, for example, as produced by cells transfected with pING1937 and pING1944. The labeled and unlabeled immunoglobulin polypeptides were incubated with HT-29 cells at 4° C. for 5 hours followed by washing. Labeled cells were removed with NaOH and counted. Data analysis was performed using Ligand, [Munson and Redbard, […] 107: 220-239 (1980)].
Human engineered ING-1 modified at the low risk plus moderate risk positions was also evaluated using competition binding assays. No differences in binding between the mouse-human chimeric and the human engineered (low risk) ING-1 was observed.

The values that follow come from patent US20080241126A1 (XOMA TECHNOLOGY, published 2008).

B1: human engineered (low risk) ING-1 (antibody, human IgG1, kappa)
VL: DIVMTQSALSNPVTLGESGSISCRSSKSLLHSNGITYLYWYLQKPGQSPQLLIYQMSNRASGVPDRFSSSGSGTDFTLKISRVEAEDVGVYYCAQNLELPRTFGQGTKLEMKRTVAAPSVFIFPPSDEQLKSGTASVVCLLNNFYPREAKVQWKVDNALQSGNSQESVTEQDSKDSTYSLSSTLTLSKADYEKHKVYACEVTHQGLSSPVTKSFNRGEC
VH: not shown
notes: It has 6 low risk changes in VL and 13 in VH; also called human engineered ING-1; ING-1(heMab)
B1: the binding result (with soluble human Ep-CAM; in test [1]) was “binds” in each case.

B2: modified ING-1 with low plus moderate risk light chain and low risk heavy chain (antibody, human IgG1, kappa)
VL: DIVMTQSPLSLPVTPGEPGSISCRSSKSLLHSNGITYLYWYLQKPGQSPQLLIYQMSNRASGVPDRFSSSGSGTDFTLKISRVEAEDVGVYYCAQNLELPRTFGQGTKLEMKRTVAAPSVFIFPPSDEQLKSGTASVVCLLNNFYPREAKVQWKVDNALQSGNSQESVTEQDSKDSTYSLSSTLTLSKADYEKHKVYACEVTHQGLSSPVTKSFNRGEC
VH: not shown
notes: It is an IgG purified on protein A with human kappa and gamma-1 constant regions; also called low risk heavy chain with a low plus moderate risk light chain
Regarding B2, the binding result in test [2] is reported as “binds”.

B3: modified ING-1 with low risk light chain and low plus moderate risk heavy chain (antibody, human IgG1, kappa)
VL: DIVMTQSALSNPVTLGESGSISCRSSKSLLHSNGITYLYWYLQKPGQSPQLLIYQMSNRASGVPDRFSSSGSGTDFTLKISRVEAEDVGVYYCAQNLELPRTFGQGTKLEMKRTVAAPSVFIFPPSDEQLKSGTASVVCLLNNFYPREAKVQWKVDNALQSGNSQESVTEQDSKDSTYSLSSTLTLSKADYEKHKVYACEVTHQGLSSPVTKSFNRGEC
VH: not shown
notes: It is an IgG purified on protein A with human kappa and gamma-1 constant regions; also called combination of a low risk light chain with a low plus moderate risk heavy chain
For B3, the binding result in test [2] was “binds”.

B4: human engineered (low plus moderate risk) ING-1 (antibody, human IgG1, kappa)
VL: DIVMTQSPLSLPVTPGEPGSISCRSSKSLLHSNGITYLYWYLQKPGQSPQLLIYQMSNRASGVPDRFSSSGSGTDFTLKISRVEAEDVGVYYCAQNLELPRTFGQGTKLEMKRTVAAPSVFIFPPSDEQLKSGTASVVCLLNNFYPREAKVQWKVDNALQSGNSQESVTEQDSKDSTYSLSSTLTLSKADYEKHKVYACEVTHQGLSSPVTKSFNRGEC
VH: not shown
notes: IgG with human kappa and gamma-1 constant regions, built like pING1937; It has 10 low plus moderate risk changes in VL and 20 in VH; also called product of pING1944
As to B4, the binding result in test [3] was “binds”.

B5: mouse-human chimeric ING-1 antibody (as produced by cell line HB9812, ATCC) (antibody, human IgG1, kappa, V domains shown)
VH: QIQLVQSGPELKKPGETVKISCKASGYTFTKYGMNWVKQAPGKGLKWMGWINTYTEEPTYGDDFKGRFAFSLETSASTANLQINNLKSEDTATYFCARFGSAVDYWGQGTSVTVSS
VL: DIVMTQAAFSNPVTLGTSGSISCRSSKSLLHSNGITYLYWYLQKPGQSPQLLIYQMSNLASGVPDRFSSSGSGTDFTLRISRVEAEDVGVYYCAQNLELPRTFGGGTKLEMKR
notes: The labelled tracer form was iodinated with Na125I
Consider B5, for which the binding result in test [1] is listed as “binds”.
